This note sets out measurements from CN113912709A (SHENZHEN NATIONAL CLINICAL RES CENTER FOR INFECTIOUS …, dated 2022).

B1: VacW-209 (antibody, V domains shown)
VH: QVQLVESGGGVVQPGRSLRLSCAASGFTFSSIAMHWVRQAPGKGLEWVAVMSFDGSIKYYGDSVKGRFTISRDNSKSTLYLQMNSLRAEDTAVYYCARGVQGYYDRSGYYNLDYNYGMDVWGQGTTVTVSS
VL: QSVLTQPPSVSGAPGQRVTISCTGSSSNIGAGYDVHWYQQLPGTAPKLLIYGNSNRPSGVPDRFSGSKSGTSASLAITGLQAEDEADYYCQSYDSSLSGWVFGGGTKLTVL
B2: VacW-105 (antibody, V domains shown)
VH: QVQLVQSGAEVKKPGSSVKVSCKASGGTFRSYTISWVRQAPGQGLEWMGRILPILGIANYAQKFQGRVTITADKSTSTAYMELSSLRSEDTAVYYCARVTGAPVESAAWFDPWGQGTLVTVSS
VL: not shown
B3: VacW-201 (antibody, V domains shown)
VH: EVQLVESGGGLVQPGGSLRLSCAASGFTFSSYWMNWVRQAPGKGLEWVANIKQDGSEKYYVDSVKGRFTISRDNAKNSLYLQMNSLRAEDTAVYYCARMEYPYGGVDYWGQGTLVTVSS
VL: NFMLTQPHSVSESPGKTVTISCTGSSGSIASNYVQWYQQRPGSAPTTVIYEDNQRPSGVPDRFSGSIDSSSNSASLTISGLKTEDEADYYCQSYDSSNRNWVFGGGTKLTVL
B4: VacW-215 (antibody, V domains shown)
VH: EVQLVESGGGLIQPGGSLRLSCAASGFTVSSNYMSWVRQAPGKGLEWVSVIYSGGSTYYADSVKGRFTISRDNSKNTLYLQMNSLRAEDTAVYYCARSTWLRGGFDYWGQGTLVTVSS
VL: NFMLTQPHSVSESPGKTVTISCTGSSGSIASNYVQWYQQRPGSAPTTVIYEDNQRPSGVPDRFSGSIDSSSNSASLTISGLKTEDEADYYCQSYDSSNHFYVFGTGTKVTVL
B5: VacW-212 (antibody, V domains shown)
VH: EVQLVESGGGLVQPGGSLRLSCAASGFTFSSYWMNWVRQAPGKGLEWVANIKQDESEKYYVDSVKGRFTISRDNAKNSLFLQMNSLRVEDTAVYYCARMEYPYGGIDYWGQGTLVTVSA
VL: NFMLTQPHSVSESPGKTVTISCTGSSGSIASNYVQWYQQRPGSAPTTVIYEDNQRPSGVPDRFSGSIDSSSNSASLTISGLKTEDEADYYCQSYDSSNRNWVFGGGTKLTVL
B6: VacW-138 (antibody, V domains shown)
VH: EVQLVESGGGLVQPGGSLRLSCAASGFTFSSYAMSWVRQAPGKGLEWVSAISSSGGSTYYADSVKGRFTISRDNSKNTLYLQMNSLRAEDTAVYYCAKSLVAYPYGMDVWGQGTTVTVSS
VL: AIQLTQSPFSLSASVGDRVTITCRASQGISSALAWYQQKPGKAPKLLIYDASSLESGVPSRFSGSGSGTDFTLTISSLQPEDFATYFCQQVDTYQFTFGPGTKVDIK

The target of the first assay is SARS-CoV-2 wild-type spike protein (on pseudovirus) (SARS-CoV-2, UniProt P0DTC2 14-1273). The experiment in a line: cell-based or functional assay.
Take B1: the “假病毒中和试验 IC50” value was 0.03 µg/mL.

For a further assay, the target named is T1, SARS-CoV-2 wild-type RBD protein (SARS-CoV-2, UniProt P0DTC2 319-541).
T1 construct: domain: RBD
The experiment in a line: SPR, Biacore 8K, RBD on CM5 chip, IgG injected, 1:1 model.
One may read the Kd as the equilibrium constant for the complex coming apart. The low end stands for a tighter complex, the high end for a looser complex. In the case of B2, the Kd was 1.64 nM. B3 gave a Kd of 0.88 nM. In turn, B4 came in with a Kd of 0.405 nM. Against the preceding molecule, the Kd is about 2.2-fold lower. In the case of B5, binding was put at a Kd of 0.653 nM.

In turn, B1 returned a Kd of 0.0113 nM.

B6: the Kd was 1.1 nM.
